The text below walks through data of patent US10465009B2, “BCMA antigen binding proteins” (Amgen Inc., priority 2012, dated 2019).

The chains are these.
T1: [6x Histidine-SUMO]-huBCMA (SEQ ID NO:350) and carboxy terminal clipped forms (Homo sapiens, UniProt Q02223)
T1 construct: GGS-G3 linker + Avi tag (lost in the clipped species) (C); made in house
T1 sequence (Q02223 5-54): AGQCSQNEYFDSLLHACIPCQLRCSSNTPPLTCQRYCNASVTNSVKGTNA

B1: 29C12: second campaign anti-huBCMA mAb, Vh SEQ ID NO:220, Vl SEQ ID NO:254 (antibody, V domains shown)
VH: EVQLLESGGALVQPGGSLRLSCAASGFTFSSYAMNWVRQAPGKGLEWVSAISVGGDTYYADSVKGRFTISRDNSKNTLYLQMNSLRAEDTAVYYCAKDQVTMVRGVWYYYGLDVWGQGTTVTVSS
VL: DIVMIQSPLSLPVTPGEPASISCRSSQSLLHSNGNNYLDWYLQKPGQSPHLLISLGSNRTSGVPDRFSGSGSGTDFTLKISRVEAEDVGVYYCMQALQPPRRFGQGTKLEIKR
B2: 29C12.1 ADC (conjugate)
VH: B1 VH
VL: B1 VL
B3: 37B2.1 ADC (conjugate)
VH: B1 VH with S31N, Q81H, M82V, R86S, T90S, M102L
VL: B1 VL with D1V, M4L, V90F
B4: 32B5-MCC-DM1 (conjugate)
VH: B1 VH with Q81H, M82V, R86S, T90S, M102L
VL: B1 VL with D1V, M4L, V90F
B5: 33C7.1 ADC (conjugate)
VH: B1 VH with Q81H, M82V, R86S, T90S, M102L
VL: B1 VL with D1V, M4L, V90F
B6: 35D2.1 ADC (conjugate)
VH: B1 VH with D56G, Q81H, M82V
VL: B1 VL with D1V, M4L, V90F
B7: 29C12-MCC-DM1 (conjugate)
VH: B1 VH
VL: B1 VL
B8: 40D7.1 ADC (conjugate)
VH: B1 VH
VL: B1 VL with Y37F, F67L, V90I, Q98R
B9: 32B5.1 ADC (conjugate)
VH: B1 VH with Q81H, M82V, R86S, T90S, M102L
VL: B1 VL with D1V, M4L, V90F

Where a chain is given by its changes, count along the chain named. “Also recorded” adds a separate entry of the source.

The first test concerns the target T1, [6x Histidine-SUMO]-huBCMA (SEQ ID NO:350) and carboxy terminal clipped forms. Put plainly: Size exclusion chromatography and LC/MS of antibody complexes with Sumo-huBCMA and its clipped forms. The class given is binding. The conditions noted are these: SEC. From the text: To determine which forms of 6×His-SUMO-huBCMA were bound to the anti-huBCMA antibodies, the SEC fractions were isolated and analyzed. Carboxy-terminus fragments of the extracellular domain of human BCMA were generated as clipped forms from the rhuBCMA fusion protein (6×His::Sumo::huBCMA(aa 5-51)::GGS::G3::Avi) of SEQ ID NO:350, as shown in FIG. 45.
A Superdex 200™ 10/30 cm SEC column (GE Healthcare Life Sciences) was used according to the manufacturer's recommendations and run in phosphate buffered saline (PBS). Incubations of antibody with excess levels of sumoBCMA were performed at room temperature for at least 30 minutes.
A Superdex 200™ 10/30 cm SEC column (GE Healthcare Life Sciences) was used according to the manufacturer's recommended condision and run in phosphate buffered saline (PBS). Incubations of antibody with excess levels of sumoBCMA were performed at room temperature for at least 30 minutes.
5 ug of total proteins were reduced in 50 mM Tris/4 M guanidine/9 mM DTT, pH 8.0 at 55° C. for 15 min, and analyzed in Agilent LCTOF system using a Vydac C8 column, 2.1 mm ID×150 mm, […] particle size. […] TOF MS conditions included capillary voltage of 4000 V, drying gas flow at 10 L/min, dry gas temperature at 300° C., nebulizer gas flow at 40 L/min, and fragmentor voltage of 300 V. MS data was analyzed in Agilent MassHunter™ Qualitative Analysis program.
As for B1, the “binding to full-length and truncated forms of huBCMA” value is “bound full-length and truncated forms of BCMA; also recorded: bound all forms of human BCMA”.

A further test deals with various cell lines. Put plainly: Cell viability control: cell lines exposed to free DM1. It counts as cell-based, human. The conditions noted are these: FIG. 13. As to the method:
The ADCs were tested for the ability to target and kill BCMA-expressing myeloma cells. The CellTiter-Glo® Luminescent Cell Viability Assay is a homogeneous method to determine the number of viable cells in culture based on quantitation of the ATP present, which signals the presence of metabolically active cells. The CellTiter-Glo® Assay is applicable to cytotoxicity assays (see http://www.promega.com/products/cell-health-assays/cell-viability-assays/celltiterglo-luminescent-cell-viability-assay/ for more information). The cell viability assay was used to assess the relative killing capacity of various ADCs on various multiple myeloma cell lines and B-cell lines. The protocol provided in the Cell Titer-Glo kit (Promega G7572) was followed. In short, 5×10^3 target cells in 90 ul RPMI 1640, 10% FBS were aliquoted into clear, flat bottom, white walled 96 well plates (Costar #3903). The ADCs were diluted into a 10× stock to create 500 nM maytansine drug equivalents. Each ADC was serially diluted in 2-fold dilutions in RPMI 1640, 10% FBS starting with 500 nM stock. […] Luminescence was read on an EnVision™ Multilabel reader (PerkinElmer) or Analyst HT plate reader (LJL Biosciences). The data was analyzed and graphed using GraphPad Prism™ to determine the relative efficacy of the ADCs on various cancer cell lines. […]
As to `COc1cc2cc(c1Cl)N(C)C(=O)C[C@H](OC(=O)[C@H](C)N(C)C(=O)CCS)[C@]1(C)O[C@H]1[C@H](C)[C@@H]1C[C@@](O)(NC(=O)O1)[C@H](OC)/C=C/C=C(\C)C2` [DM1], the “killing of cell lines by free drug” value was “killed by free DM1”.

In a further test the test system is H929 cells. Description: CellTiter-Glo Luminescent Cell Viability Assay, H929.
Conditions: not given
The class given is cell-based, human. As to the method: The ADCs were tested for the ability to target and kill BCMA-expressing myeloma cells. The CellTiter-Glo® Luminescent Cell Viability Assay is a homogeneous method to determine the number of viable cells in culture based on quantitation of the ATP present, which signals the presence of metabolically active cells. The CellTiter-Glo® Assay is applicable to cytotoxicity assays (see http://www.promega.com/products/cell-health-assays/cell-viability-assays/celltiterglo-luminescent-cell-viability-assay/ for more information). The cell viability assay was used to assess the relative killing capacity of various ADCs on various multiple myeloma cell lines and B-cell lines. The protocol provided in the Cell Titer-Glo kit (Promega G7572) was followed. In short, 5×10^3 target cells in 90 ul RPMI 1640, 10% FBS were aliquoted into clear, flat bottom, white walled 96 well plates (Costar #3903). The ADCs were diluted into a 10× stock to create 500 nM maytansine drug equivalents. Each ADC was serially diluted in 2-fold dilutions in RPMI 1640, 10% FBS starting with 500 nM stock. 10 ul of the 10×ADC dilution series was added to the 90 ul of cells in media (triplicate wells). The highest concentration of ADC was approximately 50 nM maytansine drug equivalents, and the lowest concentration of ADC was approximately 50 pM maytansine drug equivalents. An isotype control ADC (an anti-streptavidin huIgG1 conjugated to MCC-DM1) was included, as well as a media-only control. The plates were incubated at 37° C., 5% CO2 for 96 hours. After incubation, 100 ul of the Substrate Solution (Promega G7572) was added to each well. Luminescence was read on an EnVision™ Multilabel reader (PerkinElmer) or Analyst HT plate reader (LJL Biosciences). The data was analyzed and graphed using GraphPad Prism™ to determine the relative efficacy of the ADCs on various cancer cell lines.
The 2A1CV5-MCC-DM1, 32B5-MCC-DM1 and 29C12-MCC-DM1 ADCs were tested for the ability to target and kill BCMA-expressing myeloma cells (H929). The CellTiter-Glo® Luminescent Cell Viability Assay is a homogeneous method to determine the number of viable cells in culture based on quantitation of the ATP present, which signals the presence of metabolically active cells. The CellTiter-Glo® Assay is applicable to cytotoxicity assays (see http://www.promega.com/products/cell-health-assays/cell-viability-assays/celltiter_glo-luminescent-cell-viability-assay/ for more information). The cell viability assay was used to assess the relative killing capacity of various ADCs on various multiple myeloma cell lines and B-cell lines. The protocol provided in the Cell Titer-Glo kit (Promega G7572) was followed. In short, 5×10^3 target cells in 90 ul RPMI 1640, 10% FBS were aliquoted into clear, flat bottom, white walled 96 well plates (Costar #3903). The ADCs were diluted into a 10× stock to create 500 nM maytansine drug equivalents. Each ADC was serially diluted in 2-fold dilutions in RPMI 1640, 10% FBS starting with 500 nM stock. 10 ul of the 10×ADC dilution series was added to the 90 ul of cells in media (triplicate wells). The highest concentration of ADC was approximately 50 nM maytansine drug equivalents, and the lowest concentration of ADC was approximately 50 pM maytansine drug equivalents. An isotype control ADC (an anti-streptavidin huIgG1 conjugated to MCC-DM1) was included, as well as a media-only control. The plates were incubated at 37° C., 5% CO2 for 96 hours. After incubation, 100 ul of the Substrate Solution (Promega G7572) was added to each well. Luminescence was read on an EnVision™ Multilabel reader (PerkinElmer) or Analyst HT plate reader (LJL Biosciences). The data was analyzed and graphed using GraphPad Prism™ to determine the relative efficacy of the ADCs on various cancer cell lines.
In the case of B2, the “killing of huBCMA-expressing myeloma cells (H929)” value is listed as “selectively killed huBCMA-expressing target cells; also recorded: showed cytotoxicity”. The same measure, in the same setting: next, B3: “selectively killed huBCMA-expressing target cells; also recorded: showed cytotoxicity”; B4: “able to target and kill BCMA-expressing myeloma cells (H929)”. For the molecule B5, the “killing of huBCMA-expressing myeloma cells (H929)” value is “selectively killed huBCMA-expressing target cells; also recorded: showed cytotoxicity”. Same read-out and setting: the result for B6 reads “selectively killed huBCMA-expressing target cells; also recorded: showed cytotoxicity”; that for B7, “able to target and kill BCMA-expressing myeloma cells (H929)”; that for B8, “selectively killed huBCMA-expressing target cells; also recorded: showed cytotoxicity”. Still for that read-out and setting: next, B9: “selectively killed huBCMA-expressing target cells; also recorded: showed cytotoxicity”.
